Where a chain is given by its changes, count along the chain named. In names and notes the source's numbering stands.

Sequence of Factor X (FX), P00742 (P00742 whole entry, looked up): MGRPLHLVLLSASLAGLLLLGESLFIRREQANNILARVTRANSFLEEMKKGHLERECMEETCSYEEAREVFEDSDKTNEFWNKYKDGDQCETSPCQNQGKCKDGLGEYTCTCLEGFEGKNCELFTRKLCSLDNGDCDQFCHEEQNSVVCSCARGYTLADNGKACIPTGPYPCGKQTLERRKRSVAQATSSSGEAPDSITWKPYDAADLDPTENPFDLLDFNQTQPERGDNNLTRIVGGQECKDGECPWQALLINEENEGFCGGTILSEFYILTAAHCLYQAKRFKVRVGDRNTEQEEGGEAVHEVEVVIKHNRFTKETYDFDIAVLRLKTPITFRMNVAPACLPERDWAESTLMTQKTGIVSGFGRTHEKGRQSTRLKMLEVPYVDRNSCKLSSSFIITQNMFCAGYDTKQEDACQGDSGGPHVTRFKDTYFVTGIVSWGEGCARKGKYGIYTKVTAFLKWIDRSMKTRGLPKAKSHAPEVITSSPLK
Sequence of Factor X, P00742 (P00742 whole entry, looked up): as above

B1: FIXa K293E/R338E/R403E (protein)
chain 1: YNSGKLEEFVQGNLERECMEEKCSFEEAREVFENTERTTEFWKQYVDGDQCESNPCLNGGSCKDDINSYECWCPFGFEGKNCELDVTCNIKNGRCEQFCKNSADNKVVCSCTEGYRLAENQKSCEPAVPFPCGRVSVSQTSKLTR
chain 2: VVGGEDAKPGQFPWQVVLNGKVDAFCGGSIVNEKWIVTAAHCVETGVKITVVAGEHNIEETEHTEQKRNVIRIIPHHNYNAAINKYNHDIALLELDEPLVLNSYVTPICIADEEYTNIFLKFGSGYVSGWGRVFHKGRSALVLQYLRVPLVDRATCLESTKFTIYNNMFCAGFHEGGRDSCQGDSGGPHVTEVEGTSFLTGIISWGEECAMKGKYGIYTKVSEYVNWIKEKTKLT
In general, kcat refers to the maximal rate divided by the concentration of active sites. Consider B1, for which the kcat with Factor X, P00742 was determined as 0.8 s⁻¹.

B2: FIXa variant D104N/K106S/R318Y/R338E/R403E/E410N (mature FIX numbering) (protein)
chain 1: B1 chain 1 with D104N, K106S
chain 2: B1 chain 2 with E113K, R138Y, E230N
As to B2, the KM of FX activation by FIXa in the Xase complex (FVIIIa, PC/PS vesicles, Ca2+) with Factor X (FX), P00742 was found to be 0.0385 µM.

B3: FIXa variant D203N/F205T/E410N (mature FIX numbering) (protein)
chain 1: B1 chain 1
chain 2: B1 chain 2 with D23N, F25T, E113K, E158R, E223R, E230N
For the protein B3, in the series with Factor X (FX), P00742, the KM of FX activation by FIXa in the Xase complex (FVIIIa, PC/PS vesicles, Ca2+) worked out at 0.0455 µM.

B4: FIXa variant D203N/F205T/R338E (mature FIX numbering) (protein)
chain 1: B1 chain 1
chain 2: B1 chain 2 with D23N, F25T, E113K, E223R
For B4, in the series with Factor X (FX), P00742, the KM of FX activation by FIXa in the Xase complex (FVIIIa, PC/PS vesicles, Ca2+) worked out at 0.0241 µM.

B5: FIXa-Y155F/K247N/N249S/R318Y/T343R/E410N (protein)
chain 1: B1 chain 1
chain 2: B1 chain 2 with K67N, N69S, E113K, R138Y, E158R, T163R, E223R, E230N
The term kcat/KM denotes the turnover number divided by the Michaelis constant. Turning to B5, in the series with Factor X (FX), P00742, the catalytic constant (kcat) is 8.1 s⁻¹ and the kcat/KM is 3.1e+08 M⁻¹ s⁻¹.

B6: FIXa variant Y155F/R338E/R403E/E410N (mature FIX numbering) (protein)
chain 1: B1 chain 1
chain 2: B1 chain 2 with E113K, E230N
With B6, the KM of FX activation by FIXa in the Xase complex (FVIIIa, PC/PS vesicles, Ca2+) with Factor X (FX), P00742 stood at 0.0336 µM.

B7: FIXa variant R318Y/R338E/E410N (mature FIX numbering) (protein)
chain 1: B1 chain 1
chain 2: B1 chain 2 with E113K, R138Y, E223R, E230N
B7: the KM of FX activation by FIXa in the Xase complex (FVIIIa, PC/PS vesicles, Ca2+) with Factor X (FX), P00742 amounted to 0.0139 µM.

B8: FIXa variant R318Y/R403E/E410N (mature FIX numbering) (protein)
chain 1: B1 chain 1
chain 2: B1 chain 2 with E113K, R138Y, E158R, E230N
In the case of B8, the KM of FX activation by FIXa in the Xase complex (FVIIIa, PC/PS vesicles, Ca2+) in the series with Factor X (FX), P00742 worked out at 0.0942 µM.

B9: FIXa-K247N/N249S/R318Y/T343R/R403E (protein)
chain 1: B1 chain 1
chain 2: B1 chain 2 with K67N, N69S, E113K, R138Y, E158R, T163R
Regarding B9, in the series with Factor X (FX), P00742, the kcat was 3.7 s⁻¹ and the kcat/KM was 3.9e+07 M⁻¹ s⁻¹.

B10: FIXa-K247N/N249S/R318Y/T343R/E410N (protein)
chain 1: B1 chain 1
chain 2: B1 chain 2 with K67N, N69S, E113K, R138Y, E158R, T163R, E223R, E230N
With B10, in the series with Factor X (FX), P00742, the kcat turned out to be 6.1 s⁻¹ and the kcat/KM was 2e+08 M⁻¹ s⁻¹.

B11: FIXa-R318Y/R338E/T343R (protein)
chain 1: B1 chain 1
chain 2: B1 chain 2 with E113K, R138Y, T163R, E223R
Take B11: in the series with Factor X (FX), P00742, the kcat is 4.5 s⁻¹ and the kcat/KM is 1.5e+08 M⁻¹ s⁻¹.

B12: FIXa variant A103N/N105S/R318Y/R338E/R403E/E410N (mature FIX numbering) (protein)
chain 1: B1 chain 1 with A103N, N105S
chain 2: B1 chain 2 with E113K, R138Y, E230N
For B12, in the series with Factor X (FX), P00742, the KM of FX activation by FIXa in the Xase complex (FVIIIa, PC/PS vesicles, Ca2+) turned out to be 0.0447 µM.

B13: FIXa-Y155F/T343R/R403E/E410N (protein)
chain 1: B1 chain 1
chain 2: B1 chain 2 with E113K, E158R, T163R, E230N
In the case of B13, in the series with Factor X (FX), P00742, the kcat worked out at 6.6 s⁻¹ and the kcat/KM is 1.5e+08 M⁻¹ s⁻¹.

B14: FIXa variant D203N/F205T/R338A (mature FIX numbering) (protein)
chain 1: B1 chain 1
chain 2: B1 chain 2 with D23N, F25T, E113K, E158A, E223R
In the case of B14, the KM of FX activation by FIXa in the Xase complex (FVIIIa, PC/PS vesicles, Ca2+) with Factor X (FX), P00742 was 0.0385 µM.

B15: FIXa variant A103N/N105S/Y155F/R318Y/R338E/R403E/E410N (mature FIX numbering) (protein)
chain 1: B1 chain 1 with A103N, N105S
chain 2: B1 chain 2 with E113K, R138Y, E230N
Turning to B15, the KM of FX activation by FIXa in the Xase complex (FVIIIa, PC/PS vesicles, Ca2+) in the series with Factor X (FX), P00742 was 0.0507 µM.

B16: FIXa variant D104N/K106S/Y155F/R318Y/R338E/R403E/E410N (mature FIX numbering) (protein)
chain 1: B1 chain 1 with D104N, K106S
chain 2: B1 chain 2 with E113K, R138Y, E230N
For B16, the KM of FX activation by FIXa in the Xase complex (FVIIIa, PC/PS vesicles, Ca2+) in the series with Factor X (FX), P00742 was found to be 0.048 µM.

B17: FIXa-Y155F/K247N/N249S/T343R/R403E/E410N (protein)
chain 1: B1 chain 1
chain 2: B1 chain 2 with K67N, N69S, E113K, E158R, T163R, E230N
In the case of B17, in the series with Factor X (FX), P00742, the kcat was 15 s⁻¹ and the kcat/KM was determined as 2.9e+08 M⁻¹ s⁻¹.

B18: FIXa variant D104N/K106S/R318Y/R338E/E410N (mature FIX numbering) (protein)
chain 1: B1 chain 1 with D104N, K106S
chain 2: B1 chain 2 with E113K, R138Y, E223R, E230N
With B18, in the series with Factor X (FX), P00742, the KM of FX activation by FIXa in the Xase complex (FVIIIa, PC/PS vesicles, Ca2+) is 0.0189 µM.

B19: FIXa variant D203N/F205T/K228N (mature FIX numbering) (protein)
chain 1: B1 chain 1
chain 2: B1 chain 2 with D23N, F25T, K48N, E113K, E158R, E223R
Turning to B19, the KM of FX activation by FIXa in the Xase complex (FVIIIa, PC/PS vesicles, Ca2+) with Factor X (FX), P00742 was 0.0399 µM.

The values are drawn from patent US20210230570.
